Measured values as given in paper PMC3630167.

What follows are substances tested against purified native poly-γ-D-glutamic acid (γDPGA) from B. licheniformis strain 9945 (B. licheniformis) (assay: ELISA).

| Substance | fold more mAb required for OD450 = 2.0 than with the IgG3 subclass [fold] |
| --- | --- |
| mAb F24F2 IgG1 subclass switch variant (antibody) | > 15 |
| mAb F24F2 IgG2a subclass switch variant (antibody) | > 15 |
| mAb F24F2 IgG2b subclass switch variant (antibody) | > 15 |
| mAb F26G3 IgG1 subclass switch variant (antibody) | > 15 |
| mAb F26G3 IgG2a subclass switch variant (antibody) | > 15 |
| mAb F26G3 IgG2b subclass switch variant (antibody) | > 15 |
